Source: patent US20060257938A1, “Method of screening for drugs that block ligand binding to a lipid binding protein” (priority 2005, published 2006)

Assays:
Assay type in all cases: binding
[1] = Probe fluorescence ratio response to linoleic acid relative to ADIFAB2; conditions: for DR/DR LA: response relative to ADIFAB2; for DR/DRAD2 LA: Table 3
Summary of the method: (§1)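 Each fatty acid's response was expressed relative to ADIFAB2, the rI-FABP-L72A probe, as ΔR/ΔRreference. ΔR is the change in the background-corrected two-wavelength intensity ratio R=Fλ1/Fλ2 from its analyte-free baseline R0. Emission was read near about 420-480 nm for unbound and about 495-580 nm for FFA-bound probe.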

[2] = Probe fluorescence ratio response to linolenic acid relative to ADIFAB2; conditions: for DR/DR LNA: response relative to ADIFAB2; for DR/DRAD2 LNA: Table 3
Summary of the method: as §1

[3] = Probe fluorescence ratio response to palmitic acid relative to ADIFAB2; conditions: for DR/DR PA: response relative to ADIFAB2; for DR/DRAD2 PA: Table 3
Summary of the method: as §1

[4] = Probe fluorescence ratio response to oleic acid relative to ADIFAB2; conditions: for DR/DR OA: response relative to ADIFAB2; for DR/DRAD2 OA: Table 3
Summary of the method: as §1

[5] = Probe fluorescence ratio response to arachidonic acid relative to ADIFAB2; conditions: for DR/DR AA: arachidonic acid, response relative to ADIFAB2; for DR/DRAD2 AA: Table 3, Arachidonic acid
Summary of the method: as §1

B1: 55V, 72A (protein, listed as Rattus norvegicus)
chain: AFDGTWKVDRNENYEKFMEKMGINVVKRKLGAHDNLKLTITQEGNKFTVKESSNVRNIDVVFELGVDFAYSAADGTELTGTWTMEGNKLVGKFKRVDNGKELIAVREISGNELIQTYTYEGVEAKRIFKKE
modifications: PEPTIDE (1)...(131) wild-type rat intestinal fatty acid binding protein
For B1, the “DR/DR LA” value [1] was 0.432, the “DR/DR LNA” value [2] was 0.477 and the “DR/DR PA” value [3] was 0.374. The “DR/DR OA” value [4] was 0.468 and the “DR/DR AA” value [5] was 0.581.

B2: L78F, L72A: FABP probe clone, substitutions L78F, L72A vs SEQ ID NO: 2 (protein, listed as Rattus norvegicus)
chain: AFDGTWKVDRNENYEKFMEKMGINVVKRKLGAHDNLKLTITQEGNKFTVKESSNFRNIDVVFELGVDFAYSAADGTEFTGTWTMEGNKLVGKFKRVDNGKELIAVREISGNELIQTYTYEGVEAKRIFKKE
modifications: PEPTIDE (1)...(131) wild-type rat intestinal fatty acid binding protein
For B2, the “DR/DRAD2 LA” value [1] was 2, the “DR/DRAD2 LNA” value [2] was 2.05 and the “DR/DRAD2 PA” value [3] was 0.91. The “DR/DRAD2 OA” value [4] was 1.83 and the “DR/DRAD2 AA” value [5] was 2.04.

B3: D74F, L72A: FABP probe clone, substitutions D74F, L72A vs SEQ ID NO: 2 (protein, listed as Rattus norvegicus)
chain: AFDGTWKVDRNENYEKFMEKMGINVVKRKLGAHDNLKLTITQEGNKFTVKESSNFRNIDVVFELGVDFAYSAAFGTELTGTWTMEGNKLVGKFKRVDNGKELIAVREISGNELIQTYTYEGVEAKRIFKKE
modifications: PEPTIDE (1)...(131) wild-type rat intestinal fatty acid binding protein
With B3 the “DR/DRAD2 LA” value [1] was 0.67, the “DR/DRAD2 LNA” value [2] was 1.04 and the “DR/DRAD2 PA” value [3] was 0.93. For the same molecule, the “DR/DRAD2 OA” value [4] was 0.51 and the “DR/DRAD2 AA” value [5] was 0.44.

B4: W82F, L72A: FABP probe clone, substitutions W82F, L72A vs SEQ ID NO: 2 (protein, listed as Rattus norvegicus)
chain: AFDGTWKVDRNENYEKFMEKMGINVVKRKLGAHDNLKLTITQEGNKFTVKESSNFRNIDVVFELGVDFAYSAADGTELTGTFTMEGNKLVGKFKRVDNGKELIAVREISGNELIQTYTYEGVEAKRIFKKE
modifications: PEPTIDE (1)...(131) wild-type rat intestinal fatty acid binding protein
For B4, the “DR/DRAD2 LA” value [1] was 1.08, the “DR/DRAD2 LNA” value [2] was 0.76 and the “DR/DRAD2 PA” value [3] was 0.41. The “DR/DRAD2 OA” value [4] was 0.78 and the “DR/DRAD2 AA” value [5] was 0.68.

B5: L72A: FABP probe clone, substitution L72A vs SEQ ID NO: 2 (protein of ADIFAB2) (protein, listed as Rattus norvegicus)
chain: AFDGTWKVDRNENYEKFMEKMGINVVKRKLGAHDNLKLTITQEGNKFTVKESSNFRNIDVVFELGVDFAYSAADGTELTGTWTMEGNKLVGKFKRVDNGKELIAVREISGNELIQTYTYEGVEAKRIFKKE
modifications: PEPTIDE (1)...(131) wild-type rat intestinal fatty acid binding protein
For B5, the “DR/DRAD2 LA” value [1] was 1.14, the “DR/DRAD2 LNA” value [2] was 1.16 and the “DR/DRAD2 PA” value [3] was 1.02. The “DR/DRAD2 OA” value [4] was 1.15 and the “DR/DRAD2 AA” value [5] was 1.12.

B6: A73I, L72A: FABP probe clone, substitutions A73I, L72A vs SEQ ID NO: 2 (protein, listed as Rattus norvegicus)
chain: AFDGTWKVDRNENYEKFMEKMGINVVKRKLGAHDNLKLTITQEGNKFTVKESSNFRNIDVVFELGVDFAYSAIDGTELTGTWTMEGNKLVGKFKRVDNGKELIAVREISGNELIQTYTYEGVEAKRIFKKE
modifications: PEPTIDE (1)...(131) wild-type rat intestinal fatty acid binding protein
In the case of B6, the “DR/DRAD2 LA” value [1] is reported as −0.04, the “DR/DRAD2 LNA” value [2] is reported as 0.03 and the “DR/DRAD2 PA” value [3] is reported as −0.04. For the same molecule, the “DR/DRAD2 OA” value [4] was −0.04 and the “DR/DRAD2 AA” value [5] was 0.38.

B7: R106W, L72A: FABP probe clone, substitutions R106W, L72A vs SEQ ID NO: 2 (protein, listed as Rattus norvegicus)
chain: AFDGTWKVDRNENYEKFMEKMGINVVKRKLGAHDNLKLTITQEGNKFTVKESSNFRNIDVVFELGVDFAYSAADGTELTGTWTMEGNKLVGKFKRVDNGKELIAVWEISGNELIQTYTYEGVEAKRIFKKE
modifications: PEPTIDE (1)...(131) wild-type rat intestinal fatty acid binding protein
In the case of B7, the “DR/DRAD2 LA” value [1] is reported as 1.04, the “DR/DRAD2 LNA” value [2] is reported as 1.03 and the “DR/DRAD2 PA” value [3] is reported as 0.41. The “DR/DRAD2 OA” value [4] was 0.99 and the “DR/DRAD2 AA” value [5] was 1.11.

B8: L72G: FABP probe clone, substitution L72G vs SEQ ID NO: 2 (protein, listed as Rattus norvegicus)
chain: AFDGTWKVDRNENYEKFMEKMGINVVKRKLGAHDNLKLTITQEGNKFTVKESSNFRNIDVVFELGVDFAYSGADGTELTGTWTMEGNKLVGKFKRVDNGKELIAVREISGNELIQTYTYEGVEAKRIFKKE
modifications: PEPTIDE (1)...(131) wild-type rat intestinal fatty acid binding protein
For B8, the “DR/DRAD2 LA” value [1] was 0.48, the “DR/DRAD2 LNA” value [2] was 0.48 and the “DR/DRAD2 PA” value [3] was 0.26. The “DR/DRAD2 OA” value [4] was 0.52 and the “DR/DRAD2 AA” value [5] was 0.62.

B9: 23Y, 72A (protein, listed as Rattus norvegicus)
chain: AFDGTWKVDRNENYEKFMEKMGYNVVKRKLGAHDNLKLTITQEGNKFTVKESSNFRNIDVVFELGVDFAYSAADGTELTGTWTMEGNKLVGKFKRVDNGKELIAVREISGNELIQTYTYEGVEAKRIFKKE
modifications: PEPTIDE (1)...(131) wild-type rat intestinal fatty acid binding protein
For B9, the “DR/DR LA” value [1] was 0.442, the “DR/DR LNA” value [2] was 0.443 and the “DR/DR PA” value [3] was 0.281. The “DR/DR OA” value [4] was 0.412 and the “DR/DR AA” value [5] was 0.492.

B10: Y117A, L72A: FABP probe clone, substitutions Y117A, L72A vs SEQ ID NO: 2 (protein, listed as Rattus norvegicus)
chain: AFDGTWKVDRNENYEKFMEKMGINVVKRKLGAHDNLKLTITQEGNKFTVKESSNFRNIDVVFELGVDFAYSAADGTELTGTWTMEGNKLVGKFKRVDNGKELIAVREISGNELIQTATYEGVEAKRIFKKE
modifications: PEPTIDE (1)...(131) wild-type rat intestinal fatty acid binding protein
In the case of B10, the “DR/DRAD2 LA” value [1] is reported as 1.01, the “DR/DRAD2 LNA” value [2] is reported as 0.62 and the “DR/DRAD2 PA” value [3] is reported as 0.32. For the same molecule, the “DR/DRAD2 OA” value [4] was 0.93 and the “DR/DRAD2 AA” value [5] was 1.27.

B11: Y117S, L72A: FABP probe clone, substitutions Y117S, L72A vs SEQ ID NO: 2 (protein, listed as Rattus norvegicus)
chain: AFDGTWKVDRNENYEKFMEKMGINVVKRKLGAHDNLKLTITQEGNKFTVKESSNFRNIDVVFELGVDFAYSAADGTELTGTWTMEGNKLVGKFKRVDNGKELIAVREISGNELIQTSTYEGVEAKRIFKKE
modifications: PEPTIDE (1)...(131) wild-type rat intestinal fatty acid binding protein
With B11 the “DR/DRAD2 LA” value [1] was 1.42, the “DR/DRAD2 LNA” value [2] was 1.07 and the “DR/DRAD2 PA” value [3] was 0.55. For the same molecule, the “DR/DRAD2 OA” value [4] was 1.19 and the “DR/DRAD2 AA” value [5] was 1.35.
